Here are results for six sequences from the supplement of paper PMC11246515.

± gives the standard deviation of the averaged measurements.

The series in a line: total protein half-life in vivo (active degradation + dilution); higher = more stable protein.
The mark [1] stands for this setting: E. coli NCM3722 delta-clpP delta-lon delta-hslV, growth: N-lim chemostat, doubling time 6 h.
The mark [2] stands for this setting: E. coli NCM3722 delta-clpP, growth: N-lim chemostat, doubling time 6 h.
Setting [3] is: E. coli NCM3722 delta-hslV, growth: N-lim chemostat, doubling time 6 h.
Setting [4] is: E. coli NCM3722 delta-lon, growth: N-lim chemostat, doubling time 6 h.
The mark [5] stands for this setting: E. coli NCM3722 delta-smpB, growth: N-lim chemostat, doubling time 6 h.
[6] abbreviates: wild type E. coli NCM3722, growth: C-lim chemostat, doubling time 3 h.
[7] abbreviates: wild type E. coli NCM3722, growth: C-lim chemostat, doubling time 6 h.
Where [8] appears, read: wild type E. coli NCM3722, growth: C-lim chemostat, doubling time 12 h.
Where [9] appears, read: wild type E. coli NCM3722, growth: N-lim chemostat, doubling time 6 h.
Setting [10] is: wild type E. coli NCM3722, growth: N-lim chemostat, doubling time 12 h.
[11] abbreviates: wild type E. coli NCM3722, growth: P-lim chemostat, doubling time 6 h.
The mark [12] stands for this setting: wild type E. coli NCM3722, growth: P-lim chemostat, doubling time 12 h.

As for “MSKLLDRFRYFKQKGETFADGHGQVMHSNRDWEDSYRQRWQFDKIVRSTHGVNCTGSCSWKIYVKNGLVTWEIQQTDYPRTRPDLPNHEPRGCPRGASYSWYLYSANRLKYPLIRKRLIELWREALKQHSDPVLAWASIMNDPQKCLSYKQVRGRGGFIRSNWQELNQLIAAANVWTIKTYGPDRVAGFSPIPAMSMVSYAAGTRYLSLLGGTCLSFYDWYCDLPPASPMTWGEQTDVPESADWYNSSYIIAWGSNVPQTRTPDAHFFTEVRYKGTKTIAITPDYSEVAKLCDQWLAPKQGTDSALAMAMGHVILKEFHLDNPSDYFINYCRRYSDMPMLVMLEPRDDGSYVPGRMIRASDLVDGLGESNNPQWKTVAVNTAGELVVPNGSIGFRWGEKGKWNLESIAAGTETELSLTLLGQHDAVAGVAFPYFGGIENPHFRSVKHNPVLVRQLPVKNLTLVDGNTCPVVSVYDLVLANYGLDRGLEDENSAKDYAEIKPYTPAWGEQITGVPRQYIETIAREFADTAHKTHGRSMIILGAGVNHWYHMDMNYRGMINMLIFCGCVGQSGGGWAHYVGQEKLRPQTGWLPLAFALDWNRPPRQMNSTSFFYNHSSQWRYEKVSAQELLSPLADASKYSGHLIDFNVRAERMGWLPSAPQLGRNPLGIKAEADKAGLSPTEFTAQALKSGDLRMACEQPDSSSNHPRNLFVWRSNLLGSSGKGHEYMQKYLLGTESGIQGEELGASDGIKPEEVEWQTAAIEGKLDLLVTLDFRMSSTCLFSDIVLPTATWYEKDDMNTSDMHPFIHPLSAAVDPAWESRSDWEIYKGIAKAFSQVCVGHLGKETDVVLQPLLHDSPAELSQPCEVLDWRKGECDLIPGKTAPNIVAVERDYPATYERFTSLGPLMDKLGNGGKGISWNTQDEIDFLGKLNYTKRDGPAQGRPLIDTAIDASEVILALAPETNGHVAVKAWQALGEITGREHTHLALHKEDEKIRFRDIQAQPRKIISSPTWSGLESDHVSYNAGYTNVHELIPWRTLSGRQQLYQDHPWMRAFGESLVAYRPPIDTRSVSEMRQIPPNGFPEKALNFLTPHQKWGIHSTYSENLLMLTLSRGGPIVWISETDARELTIVDNDWVEVFNANGALTARAVVSQRVPPGMTMMYHAQERIMNIPGSEVTGMRGGIHNSVTRVCPKPTHMIGGYAQLAWGFNYYGTVGSNRDEFIMIRKMKNVNWLDDEGRDQVQEAKK”, the “total protein half-life in vivo” value by setting is: under setting [1], 6.1 ± 1 h; under setting [2], 5.33 ± 0.2 h; under setting [3], 6.53 ± 0.28 h; under setting [4], 6.11 ± 1.5 h; under setting [5], 5.8 ± 0.67 h; under setting [6], 2.8 ± 0.2 h. Moreover, the “total protein half-life in vivo” value was 6.25 ± 1.3 h under setting [7]; 11.5 ± 1.3 h under setting [8]; 5.956 ± 0.043 h under setting [9]; 12.43 ± 0.018 h under setting [10]; 5.7 ± 0.32 h under setting [11]; 11.4 ± 0.43 h under setting [12].

Regarding “MSKSLQKPTILNVETVARSRLFTVESVDLEFSNGVRRVYERMRPTNREAVMIVPIVDDHLILIREYAVGTESYELGFSKGLIDPGESVYEAANRELKEEVGFGANDLTFLKKLSMAPSYFSSKMNIVVAQDLYPESLEGDEPEPLPQVRWPLAHMMDLLEDPDFNEARNVSALFLVREWLKGQGRV”, the “total protein half-life in vivo” value by setting is: under setting [1], 4.86 ± 0.33 h; under setting [2], 4.8 ± 1.8 h; under setting [3], 3.56 ± 0.2 h; under setting [4], 4.58 ± 0.89 h; under setting [5], 3.4 ± 0.13 h; under setting [6], 3.39 ± 0.13 h. Further, the “total protein half-life in vivo” value by setting is: under setting [7], 5.24 ± 0.67 h; under setting [8], 9.26 ± 1.9 h; under setting [9], 3.9 ± 0.67 h; under setting [10], 5.391 ± 0.048 h; under setting [11], 5.95 ± 0.12 h; under setting [12], 11.5 ± 1 h.

As for “MRRFLTTLMILLVVLVAGLSALVLLVNPNDFRDYMVKQVAARSGYQLQLDGPLRWHVWPQLSILSGRMSLTAQGASQPLVRADNMRLDVALLPLLSHQLSVKQVMLKGAVIQLTPQTEAVRSEDAPVAPRDNTLPDLSDDRGWSFDISSLKVADSVLVFQHEDDEQVTIRNIRLQMEQDPQHRGSFEFSGRVNRDQRDLTISLNGTVDASDYPHDLTAAIEQINWQLQGADLPKQGIQGQGSFQAQWQESHKRLSFNQISLTANDSTLSGQAQVTLTEKPEWQLRLQFPQLNLDNLIPLNETANGENGAAQQGQSQSTLPRPVISSRIDEPAYQGLQGFTADILLQASNVRWRGMNFTDVATQMTNKSGLLEITQLQGKLNGGQVSLPGTLDATSINPRINFQPRLENVEIGTILKAFNYPISLTGKMSLAGDFSGADIDADAFRHNWQGQAHVEMTDTRMEGMNFQQMIQQAVERNGGDVKAAENFDNVTRLDRFTTDLTLKDGVVTLNDMQGQSPVLALTGEGMLNLADQTCDTQFDIRVVGGWNGESKLIDFLKETPVPLRVYGNWQQLNYSLQVDQLLRKHLQDEAKRRLNDWAERNKDSRNGKDVKKLLEKM”, the “total protein half-life in vivo” value reads like this: under setting [1], 6.52 ± 0.57 h; under setting [3], 6.45 ± 0.47 h; under setting [4], 6.24 ± 0.085 h; under setting [5], 6.43 ± 0.59 h; under setting [6], 3.54 ± 0.42 h; under setting [7], 6.18 ± 0.13 h. For the same sequence, the “total protein half-life in vivo” value reads like this: under setting [8], 11.4 ± 0.47 h; under setting [9], 6.231 ± 0.012 h; under setting [10], 13 ± 0.012 h; under setting [11], 6.266 ± 0.044 h; under setting [12], 11.5 ± 0.13 h.

“MKKIAAISLISIFIMSGCAVHNDETSIGKFGLAYKSNIQRKLDNQYYTEAEASLARGRISGAENIVKNDATHFCVTQGKKMQIVELKTEGVGLHGVARLTFKCGE”: the “total protein half-life in vivo” value runs as follows: under setting [2], 5.75 ± 0.084 h; under setting [3], 6.67 ± 0.98 h; under setting [5], 6.04 ± 0.45 h; under setting [6], 3.03 ± 0.37 h; under setting [7], 5.62 ± 0.76 h; under setting [8], 11.3 ± 0.14 h. Moreover, the “total protein half-life in vivo” value was 6.8 ± 0.99 h under setting [9] and 13.1 ± 1.9 h under setting [10].

As to “MEFSPPLQRATLIQRYKRFLADVITPDGRELTLHCPNTGAMTGCATPGDTVWYSTSDNTKRKYPHTWELTQSQSGAFICVNTLWANRLTKEAILNESISELSGYSSLKSEVKYGAERSRIDFMLQADSRPDCYIEVKSVTLAENEQGYFPDAVTERGQKHLRELMSVAAEGQRAVIFFAVLHSAITRFSPARHIDEKYAQLLSEAQQRGVEILAYKAEISAEGMALKKSLPVTL [P0A823]”, the “total protein half-life in vivo” value runs as follows: under setting [1], 6.44 ± 0.13 h; under setting [2], 5.88 ± 0.28 h; under setting [4], 5.97 ± 0.26 h; under setting [5], 5.41 ± 0.73 h; under setting [6], 3.39 ± 0.092 h; under setting [7], 6.23 ± 0.38 h. The “total protein half-life in vivo” value runs as follows: under setting [8], 11.2 ± 0.24 h; under setting [9], 5.71 ± 0.11 h; under setting [10], 10.2 ± 0.88 h; under setting [11], 5.67 ± 0.24 h; under setting [12], 13.5 ± 1.4 h.

For the sequence “MSTIEERVKKIIGEQLGVKQEEVTNNASFVEDLGADSLDTVELVMALEEEFDTEIPDEEAEKITTVQAAIDYINGHQA [P0A6A8]”, the “total protein half-life in vivo” value came to 7.12 ± 0.32 h under setting [1]; 5.957 ± 0.032 h under setting [2]; 5.79 ± 0.28 h under setting [3]; 7.19 ± 0.17 h under setting [4]; 4.78 ± 1.6 h under setting [5]; 3.14 ± 0.069 h under setting [6]. Further, the “total protein half-life in vivo” value is, setting by setting: under setting [7], 4.95 ± 1.3 h; under setting [8], 8.88 ± 0.96 h; under setting [9], 4 ± 0.13 h; under setting [11], 5 ± 1.2 h; under setting [12], 10.8 ± 0.47 h.
